T1: cynomolgus monkey transferrin receptor 1 (cynomolgus monkey (Macaca fascicularis), UniProt Q5RDH6 89-760 (Pongo abelii entry), limits assumed)
T1 construct: also called cyTfR1; Cyno TfR1
T1 chain: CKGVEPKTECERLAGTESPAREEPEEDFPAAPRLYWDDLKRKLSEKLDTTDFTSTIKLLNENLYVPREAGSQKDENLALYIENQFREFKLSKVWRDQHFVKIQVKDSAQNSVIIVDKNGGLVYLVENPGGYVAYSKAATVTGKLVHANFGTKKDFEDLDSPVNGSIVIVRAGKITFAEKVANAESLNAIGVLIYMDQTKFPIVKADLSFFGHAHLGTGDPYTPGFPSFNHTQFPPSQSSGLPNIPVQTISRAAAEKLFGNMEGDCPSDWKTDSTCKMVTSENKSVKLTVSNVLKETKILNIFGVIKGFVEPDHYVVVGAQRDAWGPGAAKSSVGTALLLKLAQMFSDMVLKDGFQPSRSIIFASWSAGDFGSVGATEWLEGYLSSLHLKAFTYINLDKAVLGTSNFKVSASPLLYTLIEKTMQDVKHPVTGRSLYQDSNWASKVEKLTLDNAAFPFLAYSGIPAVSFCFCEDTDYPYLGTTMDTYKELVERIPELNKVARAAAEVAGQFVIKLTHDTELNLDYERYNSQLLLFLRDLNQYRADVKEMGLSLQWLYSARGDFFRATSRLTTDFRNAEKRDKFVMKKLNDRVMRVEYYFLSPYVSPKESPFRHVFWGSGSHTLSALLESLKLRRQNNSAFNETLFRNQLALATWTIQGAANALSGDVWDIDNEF

B1: 3-M9 (antibody, V domains shown)
VH: EVQLQQSGAELVRPGASVKLSCTASDFNIKDDYIHWVKQRPEQGLEWIGRIDPANGNTKYAPKFQDKATITADTSSNTAYLQLSSLTSEDTAVYYCALGYTYWGQGTTLTVSS
VL: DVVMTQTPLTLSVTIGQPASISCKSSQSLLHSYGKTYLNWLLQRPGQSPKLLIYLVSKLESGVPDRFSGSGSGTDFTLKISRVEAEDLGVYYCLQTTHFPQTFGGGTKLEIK
notes: Tested as a mouse monoclonal IgG; also called 3-M09
B2: 4-C5 (antibody, V domains shown)
VH: QVQLQQSGAELMKPGASVKISCKATGYTFSNYWIEWVKQRPGHGLEWIGEILPGSGSTNYNENFKGKATFTADTSSNTAYMQLSSLTSEDSAVYYCARRGAYGNFHYWGQGTTLTVSS
VL: EIVLTQSPALMAASPGEKVTITCSVSSSISSSNLHWYQQKSETSPKPWIYGTSNLASGVPVRFSGSGSGTSYSLTISSMEAEDAATYYCQQWRSYPYTFGGGTKLEIK
notes: Tested as a mouse monoclonal IgG; also called 4-C05
B3: 4-O12 (antibody, V domains shown)
VH: EVQLQQSGAELVRPGASVKLSCTASGFNIVDDYMHWVKQRPEQGLEWIGWIYPENADTEYASKFQGKATITADTSSNTAYLQLSSLTSEDTAVYYCTTATGTGWFAYWGQGTLVTVSA
VL: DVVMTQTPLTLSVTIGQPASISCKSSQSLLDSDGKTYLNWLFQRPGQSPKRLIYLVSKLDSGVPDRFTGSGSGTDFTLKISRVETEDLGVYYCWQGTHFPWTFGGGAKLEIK
notes: Tested as a mouse monoclonal IgG
B4: 6-D3 (antibody, V domains shown)
VH: QVQLQQPGAELVKPGASVKMSCKASGYTFTRHWITWVKQRPGQGLEWIGDIYPGSGRTNYNEKFKSTATLTVDTSSSTAYMQLSSLTSEDSAVYYCARDGYLYINYFDYWGQGTTLTVSS
VL: ENVLTQSPAIMSASPGEKVTMTCSASSSVSFMHWFQQKSSTSPKLWIYDTSKLASGVPGRFSGSGSGSSYSLTISSMAAEDVATYYCFQGSGYPYTFGGGTKLEIK
notes: Tested as a mouse monoclonal IgG; also called 6-D03
B5: 8-D15 (antibody, V domains shown)
VH: QVQLKESGPGLVAPSQSLSITCTVSGFSLTSYAITWVRQSPGKGLEWLGLIWTGGGTNYNSALKSRLSISKDNSKSQVFLKMNSLQTDDTARYYCARIYDGYYRYFDVWGTGTTVTVSS
VL: RIVLTQTPKFLLVSAGDRVTMTCKASQSVSNDVAWYQQKPGQSPKLLIYYASNRYTGVPDRFTGSGYGTDFTFTISTVQAEDLAVYFCQQDYSSPWTFGGGTKLEIK
notes: as for B3
B6: 8-K6 (antibody, V domains shown)
VH: QVHLQQPGAELVKPGASVKMSCKASGYTFTSYWITWVKQRPGQGLEWIGDIFPNSGRTNYDEKFKSKATLTVDTSSSTAYMQLSSLTSEDSAVYFCAREGNFGSLDYWGQGTTLTVSS
VL: QIVLTQSPAIMSASPGEKVTMTCSANSNLNYMNWYHQKSGTSPKRWIYDTSKLASGVPARFSASGSGTSYSLTISSMEAEDAATYYCQQWSRNPLTFGAGTRLELK
notes: Tested as a mouse monoclonal IgG; also called 8-K06
B7: 8-O17 (antibody, V domains shown)
VH: QVQLKESGPGLVAPSQSLSITCTVSGFSLTNYGVHWVRQPPGKGLEWLVVIWNDGSATYNSALESRLSISKDNSKSQVFLKMNSLQTDDTAMYYCARHESSNPFAYWGQGTLVTVSA
VL: DILLTQSPAILSVSPGERVSFSCRASQSIGTSIHWYQQRTNGSPRLLIKSASESIAGIPSRFSGSGSGTDFTLSINSVESEDIADYYCQQNNRWPYTFGGGTKLEIK
notes: as for B3
B8: 9-C4 (antibody, V domains shown)
VH: EVQLMESGGDLVKPGGSLKLSCAASGFTFSSYGLSWVRQTPDKRLEWVATITSGGSYTYYPDSVKGRFTISRDNARNTLYLQMFSLKSEDTAMYYCALWSLDYWGQGTTLTVSS
VL: QIVLTQSPAIMSASPGEKVTMTCSANSSLSYMHWYQQKPGTSPKRWIYDTSELASGVPARFSGSGSGTSYSLTISSMEAEDAATYYCHQRRSYPWTFGGGTKLEIK
notes: Tested as a mouse monoclonal IgG; also called 9-C04
B9: 9-D4 (antibody, V domains shown)
VH: QVQLQQSGTELARPGASVKLSCKASGFTFTDYGINWVKQRTGQGLEWIGEIYPSSGNSYYNEKFKAKATLTADKSSSTAYMELRSLTSEDSAVYFCARSTYYGSPIDYWGQGTTLTVSS
VL: DIVMTQSHKFMSTPVGDRVSITCKASQDVDTTVAWYQQKPGQSPKLLIYWASTRQIGVPDRFTGSGSGTDFTLTISNVQSEDLADYFCQQYSTYPLTFGGGTKLEIK
notes: Tested as a mouse monoclonal IgG; also called 9-D04
B10: 9-K23 (antibody, V domains shown)
VH: QVTLKESGPGMLQPSQTLSLTCSFSGFSLNTYDVGVGWIRQPSGKGLEWLANIWWNDDKYYNSALKSRLTISKDTSNNQVFLKISSVDTADTATYYCTLYSYDGGFAYWGQGTLVTVSA
VL: QIVLTQSPAIMSASLGERVTMTCTASSSVSSSYLHWYQQKPGSSPKLWIYSTSNLASGVPARFSGSGSGTSYSLTISSMEAEDAATYYCHQYHRSPYTFGGGTKLEIK
notes: as for B3
B11: 3-A4 (antibody, V domains shown)
VH: EVQLQQSGAELVRPGASVKLSCTASGFNIKDDYMYWVKQRPEQGLEWIGWIDPENGDTEYASKFQDKATVTADTSSNTAYLQLSSLTSEDTAVYYCTLWLRRGLDYWGQGTSVTVSS
VL: DIVMTQAAPSVPVTPGESVSISCRSSKSLLHSNGYTYLFWFLQRPGQSPQLLIYRMSNLASGVPDRFSGSGSGTAFTLRISRVEAEDVGVYYCMQHLEYPFTFGGGTKLEIK
notes: Tested as a mouse monoclonal IgG; also called 3-A04
B12: 3-M12 (antibody, V domains shown)
VH: DVQLQESGPGLVKPSQSLSLTCSVTGYSITSGYYWNWIRQFPGNKLEWMGYITFDGANNYNPSLKNRISITRDTSKNQFFLKLTSVTTEDTATYYCTRSSYDYDVLDYWGQGTTLTVSS
VL: DIQMTQTTSSLSASLGDRVTISCRASQDISNFLNWYQQRPDGTVKLLIYYTSRLHSGVPSRFSGSGSGTDFSLTVSNLEQEDIATYFCQQGHTLPYTFGGGTKLEIK
notes: as for B3
B13: 5-H12 (antibody, V domains shown)
VH: QIQLQQSGPELVRPGASVKISCKASGYSFTDYCINWVNQRPGQGLEWIGWIYPGSGNTRYSERFKGKATLTVDTSSNTAYMQLSSLTSEDSAVYFCAREDYYPYHGMDYWGQGTSVTVSS
VL: DIVLTQSPTSLAVSLGQRATISCRASESVDGYDNSFMHWYQQKPGQPPKLLIFRASNLESGIPARFSGSGSRTDFTLTINPVEAADVATYYCQQSSEDPWTFGGGTKLEIK
notes: as for B3
B14: 4-J22 (antibody, V domains shown)
VH: EVQLQQSGAELVRSGASVKLSCTASGFNIKDYYIHWVKQRPEQGLEWIGWIDPENADTEYAPKFQGKATMTPDTSSNTAYLQLSSLTSEDTAVYYCYAWDYSMDYWGQGTSVTVSS
VL: DVVMTQTPLSLSVSLGDQASISCRSSQSLVHSNGNTYLHWYLQKPGQSPKLLIYKVSNRFSGVPDRFSGSGSGTDFILKISRVEAEDLGVYFCSQNTHVPYTFGGGTRLEIK
notes: as for B3

Columns and labels:
[1] = biological target: T1, cynomolgus monkey transferrin receptor 1; test: average KD, antibody alone; method not given
[2] = biological target: T2, human transferrin receptor 1 (human, UniProt P02786 89-760, limits assumed); test: average KD, antibody alone; method not given
T2 construct: also called hTfR1; huTfR1

[3] = biological target: T2, human transferrin receptor 1; test: Carterra LSA SPR array, IgG captured on anti-IgG lawn, hTfR1 as analyte, 25 C, 1:1 Langmuir fit
Description: Selected anti-TfR1 antibodies were tested for their binding affinity to human TfR1 for measurement of Ka (association rate constant), Kd (dissociation rate constant), and KD (affinity). […] The binding experiment was performed on Carterra LSA at 25 C. An anti-mouse IgG and anti-human IgG antibody “lawn” was prepared on a HC30M chip by amine coupling. 59 IgGs (58 mouse mAbs and 1 human mAb) were captured on the chip. Dilution series of hTfR1, cyTfR1, and hTfR2 were injected to the chip for binding (starting from 1000 nM, 1:3 dilution, 8 concentrations).
Binding data were referenced by subtracting the responses from a buffer analyte injection and globally fitting to a 1:1 Langmuir binding model for estimate of Ka (association rate constant), Kd (dissociation rate constant), and KD (affinity) using the Carterra™ Kinetics software. 5-6 concentrations were used for curve fitting.

Binder	Kd [1] [nM]	Kd [2] [nM]	Kd [3] [nM]	kon [3] [M⁻¹ s⁻¹]
B1	4.37	2.5	2.54	150000
B2	13.6	1.38	1.61	30100
B3	270	1.27	1.8	79800
B4	0.778	0.986	0.986	108000
B5	11.1	9.15	8.22	31300
B6	0.376	0.0678	0.0694	144000
B7	1.1	2.24	1.83	49900
B8	12	14.8	14.1	41000
B9	0.868	5.8	5.86	42000
B10	0.662	0.32	0.401	54000
B11	2.32	0.436	0.436	447000
B12	5.18	0.768	0.768	166000
B13	12	202	208	66700
B14	1.37	3.41		

From patent US20230144436A1 (DYNE THERAPEUTICS, published 2023)
